Biological target: T1, HLA-A*0201 molecule expressed on human T2 cells (human)
T1 construct: surface HLA-A2 detected with anti-HLA-A2-PE (clone REA517); also called HLA-A2
Experiment: T2 cell HLA-A*0201 binding assay, anti-HLA-A2-PE flow cytometry
Experimental: T2 cells (5·10⁴ cells per well) are incubated with decreasing concentrations of peptides from 100 μM to 0.1 μM (4 points: 100 μM, 10 μM, 1 μM, 0.1 μM) in serum-free medium (TexMacs) supplemented with 100 ng/μl of 2 Microglobulin at 37° C. for 16 hours. Cells are then washed two times and marked with the anti-HLA-A2 antibody coupled to PE (clone REA517, Miltenyi).
For each peptide concentration, the geometric mean of the labelling associated with the peptide of interest is subtracted from background noise and reported as a percentage of the geometric mean of the HLA-A*0202 labelling obtained for the reference peptide HIV pol 589-597 at a concentration of 100 μM.

Binder	concentration of peptide that induces 20% of HLA-A2 expression	in vitro binding affinity (relative affinity, normalized against HIV-pol)	mean relative fluorescence intensity at 0.1 µM peptide	mean relative fluorescence intensity at 1 µM peptide	mean relative fluorescence intensity at 10 µM peptide	mean relative fluorescence intensity at 100 µM peptide
ALYDVRTILL (also called UBEC2-H11; ENT168-HL) [UBE2C-H11]	14.9 µM	8.7 ratio to HIV pol reference peptide	4.2 % of HIV pol reference peptide	-2.3 % of HIV pol reference peptide	8.9 % of HIV pol reference peptide	135 % of HIV pol reference peptide
QMNPELLTL (also called ENT207_B2) [KIF2C-B11]	–	3.9 ratio to HIV pol reference peptide	–	–	–	–
VLNPELLML (also called ENT207_B4) [KIF2C-B13]	0.189 µM	0.8 ratio to HIV pol reference peptide	10.5 % of HIV pol reference peptide	42.1 % of HIV pol reference peptide	45.3 % of HIV pol reference peptide	50.3 % of HIV pol reference peptide
ALIFGQLLL (also called ENT205_B1; ENT_205-B1) [TOP2A-B2]	1.79 µM	2.9 ratio to HIV pol reference peptide	3.4 % of HIV pol reference peptide	5.5 % of HIV pol reference peptide	73.6 % of HIV pol reference peptide	146 % of HIV pol reference peptide
ALIFGQLLT (also called ENT205-H) [TOP2A-H2]	–	–	5.1 % of HIV pol reference peptide	0.3 % of HIV pol reference peptide	3.2 % of HIV pol reference peptide	0 % of HIV pol reference peptide
KVWSDVTPL [MMP11-H1]	0.65 µM	0.6 ratio to HIV pol reference peptide	–	24.9 % of HIV pol reference peptide	72.7 % of HIV pol reference peptide	82.5 % of HIV pol reference peptide
SLLSIQSYV (also called ENT172_B1) [UBE2C-B2]	0.22 µM	0.2 ratio to HIV pol reference peptide	14.2 % of HIV pol reference peptide	52 % of HIV pol reference peptide	92 % of HIV pol reference peptide	–
LILDTVHSL (also called ENT174_B1) [ANKRD30A-B2]	1.13 µM	1.3 ratio to HIV pol reference peptide	1.7 % of HIV pol reference peptide	12.4 % of HIV pol reference peptide	72 % of HIV pol reference peptide	90.8 % of HIV pol reference peptide
VMNPELLLL (also called ENT207_B3) [KIF2C-B12]	0.258 µM	1.1 ratio to HIV pol reference peptide	9.8 % of HIV pol reference peptide	41.4 % of HIV pol reference peptide	84.7 % of HIV pol reference peptide	67.7 % of HIV pol reference peptide
AVYSEILSV (also called ENT169-H) [ANKRD30A-H1]	0.65 µM	–	–	–	–	–
ALYSEILTV (also called ENT169_B1; ENT_169-B1) [ANKRD30A-B1]	0.05 µM	0.04 ratio to HIV pol reference peptide	33.3 % of HIV pol reference peptide	77.2 % of HIV pol reference peptide	93.7 % of HIV pol reference peptide	88.2 % of HIV pol reference peptide
SLPDRILDA (also called ENT204-H) [CDC20-H1]	–	6.3 ratio to HIV pol reference peptide	–	–	–	–
ILLSIQSLL [UBE2C-H2]	3.27 µM	3.5 ratio to HIV pol reference peptide	2.1 % of HIV pol reference peptide	8.5 % of HIV pol reference peptide	32.7 % of HIV pol reference peptide	–
FLYDVRTYL (also called ENT168_B1; ENT_168-B1) [UBE2C-B1]	–	3.1 ratio to HIV pol reference peptide	–	–	–	–
SLPDRILTV (also called ENT204_B1; ENT_204-B1) [CDC20-B1]	–	0.6 ratio to HIV pol reference peptide	–	–	–	–
AVIGIVAAV (also called ENT190_B1) [OR51E2-B1]	0.7 µM	0.8 ratio to HIV pol reference peptide	3.5 % of HIV pol reference peptide	25.4 % of HIV pol reference peptide	59.3 % of HIV pol reference peptide	–
YLQQELMNL (also called ENT178_B1) [UBE2C-B3]	0.14 µM	–	–	–	–	–
IVWSDVTYV (also called ENT187_B1) [MMP11-B1]	0.08 µM	0.07 ratio to HIV pol reference peptide	19.8 % of HIV pol reference peptide	73.3 % of HIV pol reference peptide	97.1 % of HIV pol reference peptide	80.2 % of HIV pol reference peptide
ALNPELLAL (also called ENT207_B1; ENT_207-B1) [KIF2C-B1]	–	1.6 ratio to HIV pol reference peptide	–	–	–	–
AQIGIVAVV [OR51E2-H1]	5.68 µM	6.2 ratio to HIV pol reference peptide	0 % of HIV pol reference peptide	4 % of HIV pol reference peptide	32 % of HIV pol reference peptide	–
RLQQELMTL [UBE2C-H3]	1.06 µM	1.1 ratio to HIV pol reference peptide	1.3 % of HIV pol reference peptide	12.3 % of HIV pol reference peptide	71.5 % of HIV pol reference peptide	82.4 % of HIV pol reference peptide
YLYDVRTAL (also called ENT168_B2) [UBE2C-B11]	0.87 µM	0.7 ratio to HIV pol reference peptide	6.6 % of HIV pol reference peptide	22.2 % of HIV pol reference peptide	68.4 % of HIV pol reference peptide	87.5 % of HIV pol reference peptide
ALYDVRTIL (also called ENT168-H) [UBE2C-H1]	15 µM	8.8 ratio to HIV pol reference peptide	3.8 % of HIV pol reference peptide	-0.2 % of HIV pol reference peptide	6.8 % of HIV pol reference peptide	134 % of HIV pol reference peptide
AINPELLQL (also called ENT207-H) [KIF2C-H1]	22.6 µM	31.1 ratio to HIV pol reference peptide	0 % of HIV pol reference peptide	0.4 % of HIV pol reference peptide	9.5 % of HIV pol reference peptide	64.9 % of HIV pol reference peptide

Reference: patent US20250205324A1, “ANTIGENIC PEPTIDES FOR PREVENTION AND TREATMENT OF CANCER” (ENTEROME S.A., priority 2022, published 2025)
